T1: MPP2, Q14168
T1 sequence (Q14168 180-250, limits assumed, looked up): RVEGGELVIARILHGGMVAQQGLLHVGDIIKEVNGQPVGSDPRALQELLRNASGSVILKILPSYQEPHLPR

T2: LIN7B, Q9HAP6
T2 sequence (Q9HAP6 88-185, limits assumed, looked up): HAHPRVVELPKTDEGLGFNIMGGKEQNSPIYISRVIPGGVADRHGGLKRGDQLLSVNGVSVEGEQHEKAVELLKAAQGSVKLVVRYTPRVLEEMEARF

T3: RADIL, Q96JH8
T3 sequence (Q96JH8 971-1071, limits assumed, looked up): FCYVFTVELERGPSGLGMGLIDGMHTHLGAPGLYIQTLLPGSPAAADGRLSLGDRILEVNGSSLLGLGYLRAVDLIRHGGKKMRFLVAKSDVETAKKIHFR

T4: TIAM2, Q8IVF5
T4 sequence (Q8IVF5 885-986, limits assumed, looked up): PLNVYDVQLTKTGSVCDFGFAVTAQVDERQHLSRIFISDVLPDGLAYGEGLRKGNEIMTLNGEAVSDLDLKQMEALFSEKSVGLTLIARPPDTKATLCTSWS

T5: ARHGEF11, O15085
T5 sequence (O15085 42-136, limits assumed, looked up): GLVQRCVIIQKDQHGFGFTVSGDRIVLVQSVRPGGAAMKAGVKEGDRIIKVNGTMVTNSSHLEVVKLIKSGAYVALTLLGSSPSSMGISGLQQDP

T6: LNX2_2, Q8N448
T6 sequence (Q8N448 334-432, limits assumed, looked up): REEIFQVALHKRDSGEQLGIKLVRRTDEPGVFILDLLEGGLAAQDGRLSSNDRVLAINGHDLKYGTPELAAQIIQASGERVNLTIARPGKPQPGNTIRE

T7: GRIP1_5, Q9Y3R0
T7 sequence (Q9Y3R0 568-668, limits assumed, looked up): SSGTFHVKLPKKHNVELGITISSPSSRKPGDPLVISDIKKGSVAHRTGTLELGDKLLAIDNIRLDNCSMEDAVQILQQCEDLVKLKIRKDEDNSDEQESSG

T8: DLG3_3, Q92796
T8 sequence (Q92796 374-475, limits assumed, looked up): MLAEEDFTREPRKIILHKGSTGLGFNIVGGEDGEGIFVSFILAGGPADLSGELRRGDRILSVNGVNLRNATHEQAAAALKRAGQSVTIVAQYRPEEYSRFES

T9: LNX2_3, Q8N448
T9 sequence (Q8N448 463-564, limits assumed, looked up): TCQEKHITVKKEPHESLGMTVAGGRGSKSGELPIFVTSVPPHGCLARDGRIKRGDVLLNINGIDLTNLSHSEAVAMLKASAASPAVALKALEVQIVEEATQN

T10: DVL3, Q92997
T10 sequence (Q92997 244-331, limits assumed, looked up): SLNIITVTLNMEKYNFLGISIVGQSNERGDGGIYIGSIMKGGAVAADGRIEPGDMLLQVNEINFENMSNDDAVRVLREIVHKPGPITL

T11: GRIP1_4, Q9Y3R0
T11 sequence (Q9Y3R0 467-571, limits assumed, looked up): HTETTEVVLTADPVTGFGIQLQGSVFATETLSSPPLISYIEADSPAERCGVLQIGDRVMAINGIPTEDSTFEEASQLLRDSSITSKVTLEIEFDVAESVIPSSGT

T12: NHERF3_1, Q5T2W1
T12 sequence (Q5T2W1 4-100, limits assumed, looked up): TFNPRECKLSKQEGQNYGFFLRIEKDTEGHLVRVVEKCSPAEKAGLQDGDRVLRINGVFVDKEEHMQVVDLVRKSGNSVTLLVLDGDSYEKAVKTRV


Target: Inadl_2, Q8NI35
Assay: holdup assay
Set-up: key: below the threshold = too weak to quantify, mostly under pKd 3.1 to 4
Settings: plain residues with an end cap or a label only (N-terminal biotin on a linker: ado-ado)

Chain of Inadl_2, Q8NI35 (Q8NI35 238-335): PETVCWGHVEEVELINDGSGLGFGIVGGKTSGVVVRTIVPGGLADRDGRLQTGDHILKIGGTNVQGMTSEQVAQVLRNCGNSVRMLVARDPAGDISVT

Binder | pKd
AKADAQESRL [PLCB2, Q00722] | below the threshold

Target: GRIP2_5, Q9C0E4
Assay: holdup assay
Set-up: key: below the threshold = too weak to quantify, mostly under pKd 3.1 to 4
Settings: plain residues with an end cap or a label only (N-terminal biotin on a linker: ado-ado)

Chain of GRIP2_5, Q9C0E4 (Q9C0E4 544-642): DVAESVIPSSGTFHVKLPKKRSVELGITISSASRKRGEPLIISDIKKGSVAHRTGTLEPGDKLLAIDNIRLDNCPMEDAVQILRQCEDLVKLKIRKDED

Binder | pKd
AKADAQESRL [PLCB2, Q00722] | below the threshold

Target: T1, MPP2, Q14168
Assay: holdup assay
Set-up: key: below the threshold = too weak to quantify, mostly under pKd 3.1 to 4
Settings: plain residues with an end cap or a label only (N-terminal biotin on a linker: ado-ado)

Binder | pKd
AKADAQESRL [PLCB2, Q00722] | below the threshold

Target: NOS1, P29475
Assay: holdup assay
Set-up: key: below the threshold = too weak to quantify, mostly under pKd 3.1 to 4
Settings: plain residues with an end cap or a label only (N-terminal biotin on a linker: ado-ado)

Chain of NOS1, P29475 (P29475 9-101): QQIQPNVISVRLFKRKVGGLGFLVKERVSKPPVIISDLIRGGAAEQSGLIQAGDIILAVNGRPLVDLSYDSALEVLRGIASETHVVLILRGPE

Binder | pKd
AKADAQESRL [PLCB2, Q00722] | below the threshold

Target: PARD3_3, Q8TEW0
Assay: holdup assay
Set-up: key: below the threshold = too weak to quantify, mostly under pKd 3.1 to 4
Settings: plain residues with an end cap or a label only (N-terminal biotin on a linker: ado-ado)

Chain of PARD3_3, Q8TEW0 (Q8TEW0 582-685): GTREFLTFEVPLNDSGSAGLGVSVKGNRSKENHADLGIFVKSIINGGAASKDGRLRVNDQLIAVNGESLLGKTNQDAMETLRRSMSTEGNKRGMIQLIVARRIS

Binder | pKd
AKADAQESRL [PLCB2, Q00722] | 3.48

Target: IL16_4, Q14005
Assay: holdup assay
Set-up: key: below the threshold = too weak to quantify, mostly under pKd 3.1 to 4
Settings: plain residues with an end cap or a label only (N-terminal biotin on a linker: ado-ado)

Chain of IL16_4, Q14005 (Q14005 1229-1329): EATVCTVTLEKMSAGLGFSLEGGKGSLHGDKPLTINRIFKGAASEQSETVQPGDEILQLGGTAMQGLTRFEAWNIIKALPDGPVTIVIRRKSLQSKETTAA

Binder | pKd
AKADAQESRL [PLCB2, Q00722] | 3.61

Target: MAGI2_2, Q86UL8
Assay: holdup assay
Set-up: key: below the threshold = too weak to quantify, mostly under pKd 3.1 to 4
Settings: plain residues with an end cap or a label only (N-terminal biotin on a linker: ado-ado)

Chain of MAGI2_2, Q86UL8 (Q86UL8 410-522): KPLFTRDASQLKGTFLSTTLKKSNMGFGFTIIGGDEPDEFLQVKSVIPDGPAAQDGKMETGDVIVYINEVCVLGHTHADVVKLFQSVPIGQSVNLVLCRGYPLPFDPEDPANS

Binder | pKd
AKADAQESRL [PLCB2, Q00722] | below the threshold

Target: FRMPD4, Q14CM0
Assay: holdup assay
Set-up: key: below the threshold = too weak to quantify, mostly under pKd 3.1 to 4
Settings: plain residues with an end cap or a label only (N-terminal biotin on a linker: ado-ado)

Chain of FRMPD4, Q14CM0 (Q14CM0 67-160): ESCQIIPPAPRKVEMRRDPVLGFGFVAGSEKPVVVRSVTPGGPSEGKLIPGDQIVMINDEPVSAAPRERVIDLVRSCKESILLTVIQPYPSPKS

Binder | pKd
AKADAQESRL [PLCB2, Q00722] | 4.05

Target: T2, LIN7B, Q9HAP6
Assay: holdup assay
Set-up: key: below the threshold = too weak to quantify, mostly under pKd 3.1 to 4
Settings: plain residues with an end cap or a label only (N-terminal biotin on a linker: ado-ado)

Binder | pKd
AKADAQESRL [PLCB2, Q00722] | below the threshold

Target: T3, RADIL, Q96JH8
Assay: holdup assay
Set-up: key: below the threshold = too weak to quantify, mostly under pKd 3.1 to 4
Settings: plain residues with an end cap or a label only (N-terminal biotin on a linker: ado-ado)

Binder | pKd
AKADAQESRL [PLCB2, Q00722] | below the threshold

Target: MAST2, Q6P0Q8
Assay: holdup assay
Set-up: key: below the threshold = too weak to quantify, mostly under pKd 3.1 to 4
Settings: plain residues with an end cap or a label only (N-terminal biotin on a linker: ado-ado)

Chain of MAST2, Q6P0Q8 (Q6P0Q8 1099-1202): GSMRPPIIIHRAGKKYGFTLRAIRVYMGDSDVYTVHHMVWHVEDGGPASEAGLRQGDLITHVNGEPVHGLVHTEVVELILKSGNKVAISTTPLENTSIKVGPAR

Binder | pKd
AKADAQESRL [PLCB2, Q00722] | 5.82

Target: IL16_3, Q14005
Assay: holdup assay
Set-up: key: below the threshold = too weak to quantify, mostly under pKd 3.1 to 4
Settings: plain residues with an end cap or a label only (N-terminal biotin on a linker: ado-ado)

Chain of IL16_3, Q14005 (Q14005 1107-1207): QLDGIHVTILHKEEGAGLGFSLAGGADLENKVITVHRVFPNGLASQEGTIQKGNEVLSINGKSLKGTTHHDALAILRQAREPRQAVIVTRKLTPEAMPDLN

Binder | pKd
AKADAQESRL [PLCB2, Q00722] | below the threshold

Target: LAP2, Q96RT1
Assay: holdup assay
Set-up: key: below the threshold = too weak to quantify, mostly under pKd 3.1 to 4
Settings: plain residues with an end cap or a label only (N-terminal biotin on a linker: ado-ado)

Chain of LAP2, Q96RT1 (Q96RT1 other isoform, or with tags, fused parts or gaps): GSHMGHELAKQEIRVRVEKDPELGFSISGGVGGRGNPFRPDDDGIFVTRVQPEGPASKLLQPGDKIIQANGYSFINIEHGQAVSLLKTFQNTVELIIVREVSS

Binder | pKd
AKADAQESRL [PLCB2, Q00722] | below the threshold

Target: T4, TIAM2, Q8IVF5
Assay: holdup assay
Set-up: key: below the threshold = too weak to quantify, mostly under pKd 3.1 to 4
Settings: plain residues with an end cap or a label only (N-terminal biotin on a linker: ado-ado)

Binder | pKd
AKADAQESRL [PLCB2, Q00722] | below the threshold

Target: T5, ARHGEF11, O15085
Assay: holdup assay
Set-up: key: below the threshold = too weak to quantify, mostly under pKd 3.1 to 4
Settings: plain residues with an end cap or a label only (N-terminal biotin on a linker: ado-ado)

Binder | pKd
AKADAQESRL [PLCB2, Q00722] | 3.66

Target: T6, LNX2_2, Q8N448
Assay: holdup assay
Set-up: key: below the threshold = too weak to quantify, mostly under pKd 3.1 to 4
Settings: plain residues with an end cap or a label only (N-terminal biotin on a linker: ado-ado)

Binder | pKd
AKADAQESRL [PLCB2, Q00722] | below the threshold

Target: T7, GRIP1_5, Q9Y3R0
Assay: holdup assay
Set-up: key: below the threshold = too weak to quantify, mostly under pKd 3.1 to 4
Settings: plain residues with an end cap or a label only (N-terminal biotin on a linker: ado-ado)

Binder | pKd
AKADAQESRL [PLCB2, Q00722] | below the threshold

Target: T8, DLG3_3, Q92796
Assay: holdup assay
Set-up: key: below the threshold = too weak to quantify, mostly under pKd 3.1 to 4
Settings: plain residues with an end cap or a label only (N-terminal biotin on a linker: ado-ado)

Binder | pKd
AKADAQESRL [PLCB2, Q00722] | below the threshold

Target: SNX27, Q96L92
Assay: holdup assay
Set-up: key: below the threshold = too weak to quantify, mostly under pKd 3.1 to 4
Settings: plain residues with an end cap or a label only (N-terminal biotin on a linker: ado-ado)

Binder | pKd
AKADAQESRL [PLCB2, Q00722] | 5.21

Target: GIPC2, Q8TF65
Assay: holdup assay
Set-up: key: below the threshold = too weak to quantify, mostly under pKd 3.1 to 4
Settings: plain residues with an end cap or a label only (N-terminal biotin on a linker: ado-ado)

Chain of GIPC2, Q8TF65 (Q8TF65 112-203): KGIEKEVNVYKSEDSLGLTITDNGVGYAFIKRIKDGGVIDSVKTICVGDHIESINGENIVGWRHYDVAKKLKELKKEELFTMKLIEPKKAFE

Binder | pKd
AKADAQESRL [PLCB2, Q00722] | below the threshold

Target: T9, LNX2_3, Q8N448
Assay: holdup assay
Set-up: key: below the threshold = too weak to quantify, mostly under pKd 3.1 to 4
Settings: plain residues with an end cap or a label only (N-terminal biotin on a linker: ado-ado)

Binder | pKd
AKADAQESRL [PLCB2, Q00722] | below the threshold

Target: T10, DVL3, Q92997
Assay: holdup assay
Set-up: key: below the threshold = too weak to quantify, mostly under pKd 3.1 to 4
Settings: plain residues with an end cap or a label only (N-terminal biotin on a linker: ado-ado)

Binder | pKd
AKADAQESRL [PLCB2, Q00722] | below the threshold

Target: TJP2_1, Q9UDY2
Assay: holdup assay
Set-up: key: below the threshold = too weak to quantify, mostly under pKd 3.1 to 4
Settings: plain residues with an end cap or a label only (N-terminal biotin on a linker: ado-ado)

Chain of TJP2_1, Q9UDY2 (Q9UDY2 24-128): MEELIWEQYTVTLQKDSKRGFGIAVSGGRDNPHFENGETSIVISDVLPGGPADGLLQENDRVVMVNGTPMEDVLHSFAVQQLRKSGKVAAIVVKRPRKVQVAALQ

Binder | pKd
AKADAQESRL [PLCB2, Q00722] | below the threshold

Target: DLG1_2, Q12959
Assay: holdup assay
Set-up: key: below the threshold = too weak to quantify, mostly under pKd 3.1 to 4
Settings: plain residues with an end cap or a label only (N-terminal biotin on a linker: ado-ado)

Chain of DLG1_2, Q12959 (Q12959 314-412): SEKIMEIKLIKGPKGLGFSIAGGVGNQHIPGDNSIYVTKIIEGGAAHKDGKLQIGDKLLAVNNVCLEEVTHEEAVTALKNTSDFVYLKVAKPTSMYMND

Binder | pKd
AKADAQESRL [PLCB2, Q00722] | below the threshold

Target: T11, GRIP1_4, Q9Y3R0
Assay: holdup assay
Set-up: key: below the threshold = too weak to quantify, mostly under pKd 3.1 to 4
Settings: plain residues with an end cap or a label only (N-terminal biotin on a linker: ado-ado)

Binder | pKd
AKADAQESRL [PLCB2, Q00722] | below the threshold

Target: T12, NHERF3_1, Q5T2W1
Assay: holdup assay
Set-up: key: below the threshold = too weak to quantify, mostly under pKd 3.1 to 4
Settings: plain residues with an end cap or a label only (N-terminal biotin on a linker: ado-ado)

Binder | pKd
AKADAQESRL [PLCB2, Q00722] | 5.58

— article PMC9482650, “Quantitative fragmentomics allow affinity mapping of interactomes” (Nature Communications, 2022)
